Assay results as given in paper PMC314469, “Protein Interaction Networks by Proteome Peptide Scanning” (PLoS Biology, 2004).
Blank lines part the entries; values can stand above or below the binder they belong to.

Legend:
Test in all cases: SPOT array
[1] = molecular target: T1, Rvs167 SH3 (RV167_YEAST), P39743
T1 chain: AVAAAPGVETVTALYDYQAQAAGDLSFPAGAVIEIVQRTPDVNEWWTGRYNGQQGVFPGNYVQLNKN

[2] = molecular target: T2, Myo5 SH3 (MYO5_YEAST), Q04439
T2 chain: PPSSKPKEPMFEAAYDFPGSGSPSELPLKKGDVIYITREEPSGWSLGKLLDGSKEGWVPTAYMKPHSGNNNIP

[3] = molecular target: Sho1 SH3 (SHO1_YEAST), P40073
[4] = molecular target: T3, Yfr024 SH3 (LSB3_YEAST), P43603
T3 chain: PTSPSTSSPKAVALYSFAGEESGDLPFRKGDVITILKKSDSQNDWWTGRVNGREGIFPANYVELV

[5] = molecular target: T4, Boi1 SH3 (BOI1_YEAST), P38041
T4 chain: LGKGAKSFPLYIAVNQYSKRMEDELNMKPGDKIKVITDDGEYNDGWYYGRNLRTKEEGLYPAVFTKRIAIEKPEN

[6] = molecular target: T5, Boi2 SH3 (BOI2_YEAST), P39969
T5 chain: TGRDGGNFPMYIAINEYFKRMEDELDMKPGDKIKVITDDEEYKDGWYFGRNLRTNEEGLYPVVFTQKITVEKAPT

[7] = molecular target: T6, Yhr016c SH3 (YSC84_YEAST), P32793
T6 chain: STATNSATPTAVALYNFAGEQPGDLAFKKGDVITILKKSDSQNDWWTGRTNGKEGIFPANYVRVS

Sho1 SH3 (SHO1_YEAST), P40073, sequence (P40073 295-366): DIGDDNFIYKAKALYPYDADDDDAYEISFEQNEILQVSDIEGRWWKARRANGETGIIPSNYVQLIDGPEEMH

normalised SPOT signal, Boehringer light units (BLU); mean over the file's lines of this peptide [1]: 28.9
normalised SPOT signal, Boehringer light units (BLU); mean over the file's lines of this peptide [2]: 76.2
normalised SPOT signal, Boehringer light units (BLU); mean over the file's lines of this peptide [3]: 51.1
normalised SPOT signal, Boehringer light units (BLU); mean over the file's lines of this peptide [4]: 27.6
normalised SPOT signal, Boehringer light units (BLU); mean over the file's lines of this peptide [5]: 644
normalised SPOT signal, Boehringer light units (BLU); mean over the file's lines of this peptide [6]: 17
normalised SPOT signal, Boehringer light units (BLU); mean over the file's lines of this peptide [7]: 13.3
B1: YNL187W 329-342 (peptide)
chain: ATVVKNSPGDPELF

normalised SPOT signal, Boehringer light units (BLU); mean over the file's lines of this peptide [1]: 47.7
normalised SPOT signal, Boehringer light units (BLU); mean over the file's lines of this peptide [2]: 137
normalised SPOT signal, Boehringer light units (BLU); mean over the file's lines of this peptide [3]: 19100
normalised SPOT signal, Boehringer light units (BLU); mean over the file's lines of this peptide [4]: 39.5
normalised SPOT signal, Boehringer light units (BLU); mean over the file's lines of this peptide [5]: 108
normalised SPOT signal, Boehringer light units (BLU); mean over the file's lines of this peptide [6]: 58.5
normalised SPOT signal, Boehringer light units (BLU); mean over the file's lines of this peptide [7]: 67.6
B2: YPL176C 343-356 (peptide)
chain: ATEAKSLPKIPSIP

normalised SPOT signal, Boehringer light units (BLU); mean over the file's lines of this peptide [1]: 60.5
normalised SPOT signal, Boehringer light units (BLU); mean over the file's lines of this peptide [2]: 426
normalised SPOT signal, Boehringer light units (BLU); mean over the file's lines of this peptide [3]: 47.7
normalised SPOT signal, Boehringer light units (BLU); mean over the file's lines of this peptide [4]: 517
normalised SPOT signal, Boehringer light units (BLU); mean over the file's lines of this peptide [5]: 82.6
normalised SPOT signal, Boehringer light units (BLU); mean over the file's lines of this peptide [6]: 0
normalised SPOT signal, Boehringer light units (BLU); mean over the file's lines of this peptide [7]: 45.4
B3: YGL130W 4-17 (peptide)
chain: AMESRVAPEIPGLI

normalised SPOT signal, Boehringer light units (BLU); mean over the file's lines of this peptide [1]: 50.7
normalised SPOT signal, Boehringer light units (BLU); mean over the file's lines of this peptide [2]: 154
normalised SPOT signal, Boehringer light units (BLU); mean over the file's lines of this peptide [3]: 115
normalised SPOT signal, Boehringer light units (BLU); mean over the file's lines of this peptide [4]: 405
normalised SPOT signal, Boehringer light units (BLU); mean over the file's lines of this peptide [5]: 103
normalised SPOT signal, Boehringer light units (BLU); mean over the file's lines of this peptide [6]: 18.8
normalised SPOT signal, Boehringer light units (BLU); mean over the file's lines of this peptide [7]: 75.9
B4: YGR024C 111-124 (peptide)
chain: ALWAKFFPEKPLNI

normalised SPOT signal, Boehringer light units (BLU); mean over the file's lines of this peptide [1]: 80.9
normalised SPOT signal, Boehringer light units (BLU); mean over the file's lines of this peptide [2]: 136
normalised SPOT signal, Boehringer light units (BLU); mean over the file's lines of this peptide [3]: 52.8
normalised SPOT signal, Boehringer light units (BLU); mean over the file's lines of this peptide [4]: 3620
normalised SPOT signal, Boehringer light units (BLU); mean over the file's lines of this peptide [5]: 127
normalised SPOT signal, Boehringer light units (BLU); mean over the file's lines of this peptide [6]: 4
normalised SPOT signal, Boehringer light units (BLU); mean over the file's lines of this peptide [7]: 92.2
B5: YIL165C 34-47 (peptide)
chain: ATGKRKLPGWPSAD

normalised SPOT signal, Boehringer light units (BLU); mean over the file's lines of this peptide [1]: 12.9
normalised SPOT signal, Boehringer light units (BLU); mean over the file's lines of this peptide [2]: 102
normalised SPOT signal, Boehringer light units (BLU); mean over the file's lines of this peptide [3]: 13.9
normalised SPOT signal, Boehringer light units (BLU); mean over the file's lines of this peptide [4]: 34.4
normalised SPOT signal, Boehringer light units (BLU); mean over the file's lines of this peptide [5]: 15.3
normalised SPOT signal, Boehringer light units (BLU); mean over the file's lines of this peptide [6]: -0
normalised SPOT signal, Boehringer light units (BLU); mean over the file's lines of this peptide [7]: 9.5
B6: YCR028C 355-368 (peptide)
chain: AVLIRADPLNPKVV

normalised SPOT signal, Boehringer light units (BLU); mean over the file's lines of this peptide [1]: 73.8
normalised SPOT signal, Boehringer light units (BLU); mean over the file's lines of this peptide [2]: 238
normalised SPOT signal, Boehringer light units (BLU); mean over the file's lines of this peptide [3]: 65
normalised SPOT signal, Boehringer light units (BLU); mean over the file's lines of this peptide [4]: 438
normalised SPOT signal, Boehringer light units (BLU); mean over the file's lines of this peptide [5]: 1480
normalised SPOT signal, Boehringer light units (BLU); mean over the file's lines of this peptide [6]: 14.1
normalised SPOT signal, Boehringer light units (BLU); mean over the file's lines of this peptide [7]: 41.3
B7: YBR191W 125-138 (peptide)
chain: AVQLKRQPAQPRES

normalised SPOT signal, Boehringer light units (BLU); mean over the file's lines of this peptide [1]: 70.8
normalised SPOT signal, Boehringer light units (BLU); mean over the file's lines of this peptide [2]: 241
normalised SPOT signal, Boehringer light units (BLU); mean over the file's lines of this peptide [3]: 49.7
normalised SPOT signal, Boehringer light units (BLU); mean over the file's lines of this peptide [4]: 512
normalised SPOT signal, Boehringer light units (BLU); mean over the file's lines of this peptide [5]: 1950
normalised SPOT signal, Boehringer light units (BLU); mean over the file's lines of this peptide [6]: 17.7
normalised SPOT signal, Boehringer light units (BLU); mean over the file's lines of this peptide [7]: 63.5
B8: YJL083W 57-70 (peptide)
chain: APVVKSEPSLPRMR

normalised SPOT signal, Boehringer light units (BLU); mean over the file's lines of this peptide [1]: 48.5
normalised SPOT signal, Boehringer light units (BLU); mean over the file's lines of this peptide [2]: 169
normalised SPOT signal, Boehringer light units (BLU); mean over the file's lines of this peptide [3]: 19.5
normalised SPOT signal, Boehringer light units (BLU); mean over the file's lines of this peptide [4]: 816
normalised SPOT signal, Boehringer light units (BLU); mean over the file's lines of this peptide [5]: 1950
normalised SPOT signal, Boehringer light units (BLU); mean over the file's lines of this peptide [6]: 21.6
normalised SPOT signal, Boehringer light units (BLU); mean over the file's lines of this peptide [7]: 304
B9: YAL017W 81-94 (peptide)
chain: ASFRKTKPPPPLDF

normalised SPOT signal, Boehringer light units (BLU); mean over the file's lines of this peptide [1]: 15.9
normalised SPOT signal, Boehringer light units (BLU); mean over the file's lines of this peptide [2]: 117
normalised SPOT signal, Boehringer light units (BLU); mean over the file's lines of this peptide [3]: 37.7
normalised SPOT signal, Boehringer light units (BLU); mean over the file's lines of this peptide [4]: 5.8
normalised SPOT signal, Boehringer light units (BLU); mean over the file's lines of this peptide [5]: 76.3
normalised SPOT signal, Boehringer light units (BLU); mean over the file's lines of this peptide [6]: 3.5
normalised SPOT signal, Boehringer light units (BLU); mean over the file's lines of this peptide [7]: 0.6
B10: YGR162W 923-936 (peptide)
chain: APPPKEEPAAPTST

normalised SPOT signal, Boehringer light units (BLU); mean over the file's lines of this peptide [1]: 76.9
normalised SPOT signal, Boehringer light units (BLU); mean over the file's lines of this peptide [2]: 401
normalised SPOT signal, Boehringer light units (BLU); mean over the file's lines of this peptide [3]: 3780
normalised SPOT signal, Boehringer light units (BLU); mean over the file's lines of this peptide [4]: 29.1
normalised SPOT signal, Boehringer light units (BLU); mean over the file's lines of this peptide [5]: 713
normalised SPOT signal, Boehringer light units (BLU); mean over the file's lines of this peptide [6]: 16.2
normalised SPOT signal, Boehringer light units (BLU); mean over the file's lines of this peptide [7]: 3.4
B11: YDL001W 74-87 (peptide)
chain: AQKLKLLPEEPFQR

normalised SPOT signal, Boehringer light units (BLU); mean over the file's lines of this peptide [1]: 63.8
normalised SPOT signal, Boehringer light units (BLU); mean over the file's lines of this peptide [2]: 139
normalised SPOT signal, Boehringer light units (BLU); mean over the file's lines of this peptide [3]: 35.4
normalised SPOT signal, Boehringer light units (BLU); mean over the file's lines of this peptide [4]: 26.8
normalised SPOT signal, Boehringer light units (BLU); mean over the file's lines of this peptide [5]: 193
normalised SPOT signal, Boehringer light units (BLU); mean over the file's lines of this peptide [6]: 12.6
normalised SPOT signal, Boehringer light units (BLU); mean over the file's lines of this peptide [7]: 15.2
B12: YGR172C 61-74 (peptide)
chain: ALSTKGYPHEPPLL

normalised SPOT signal, Boehringer light units (BLU); mean over the file's lines of this peptide [1]: 80.6
normalised SPOT signal, Boehringer light units (BLU); mean over the file's lines of this peptide [2]: 953
normalised SPOT signal, Boehringer light units (BLU); mean over the file's lines of this peptide [3]: 65.5
normalised SPOT signal, Boehringer light units (BLU); mean over the file's lines of this peptide [4]: 214
normalised SPOT signal, Boehringer light units (BLU); mean over the file's lines of this peptide [5]: 349
normalised SPOT signal, Boehringer light units (BLU); mean over the file's lines of this peptide [6]: 1.5
normalised SPOT signal, Boehringer light units (BLU); mean over the file's lines of this peptide [7]: 16.3
B13: YLR115W 531-544 (peptide)
chain: ASKHKMFPFNPAKI

normalised SPOT signal, Boehringer light units (BLU); mean over the file's lines of this peptide [1]: 49.7
normalised SPOT signal, Boehringer light units (BLU); mean over the file's lines of this peptide [2]: 274
normalised SPOT signal, Boehringer light units (BLU); mean over the file's lines of this peptide [3]: 30.2
normalised SPOT signal, Boehringer light units (BLU); mean over the file's lines of this peptide [4]: 204
normalised SPOT signal, Boehringer light units (BLU); mean over the file's lines of this peptide [5]: 263
normalised SPOT signal, Boehringer light units (BLU); mean over the file's lines of this peptide [6]: 59.9
normalised SPOT signal, Boehringer light units (BLU); mean over the file's lines of this peptide [7]: 28.1
B14: YCR046C 20-33 (peptide)
chain: ATKRKTIPVYPPVQ

normalised SPOT signal, Boehringer light units (BLU); mean over the file's lines of this peptide [1]: 39.6
normalised SPOT signal, Boehringer light units (BLU); mean over the file's lines of this peptide [2]: 78.4
normalised SPOT signal, Boehringer light units (BLU); mean over the file's lines of this peptide [3]: 0
normalised SPOT signal, Boehringer light units (BLU); mean over the file's lines of this peptide [4]: 17.2
normalised SPOT signal, Boehringer light units (BLU); mean over the file's lines of this peptide [5]: 41.1
normalised SPOT signal, Boehringer light units (BLU); mean over the file's lines of this peptide [6]: 14.1
normalised SPOT signal, Boehringer light units (BLU); mean over the file's lines of this peptide [7]: 19.6
B15: YHR113W 80-93 (peptide)
chain: AVGGKWEPGNPIAI

normalised SPOT signal, Boehringer light units (BLU); mean over the file's lines of this peptide [1]: 31.8
normalised SPOT signal, Boehringer light units (BLU); mean over the file's lines of this peptide [2]: 112
normalised SPOT signal, Boehringer light units (BLU); mean over the file's lines of this peptide [3]: 93.3
normalised SPOT signal, Boehringer light units (BLU); mean over the file's lines of this peptide [4]: 132
normalised SPOT signal, Boehringer light units (BLU); mean over the file's lines of this peptide [5]: 99.5
normalised SPOT signal, Boehringer light units (BLU); mean over the file's lines of this peptide [6]: 24.9
normalised SPOT signal, Boehringer light units (BLU); mean over the file's lines of this peptide [7]: 32.4
B16: YGR284C 61-74 (peptide)
chain: AVVYKLKPYIPSLS
